This is an account of results in publication PMC13235457 (2026).

For assay [1], the target named is Syk tandem SH2 (tSH2) domain. The assay can be described thus: FP; 50 mM KCl, 100 mM NaCl.
The target in assay [2] is Syk tandem SH2 (tSH2) domain. The assay is described as follows: FP; 0 mM KCl, 150 mM NaCl.
Assay [3] concerns the target Syk tandem SH2 (tSH2) domain. The assay is described as follows: FP; 5 mM KCl, 145 mM NaCl.
Assay [4] addresses Syk tandem SH2 (tSH2) domain. The assay is described as follows: FP; 20 mM KCl, 130 mM NaCl.
In assay [5] the target is Syk tandem SH2 (tSH2) domain. The assay can be described thus: intrinsic Trp fluorescence; 20 mM KCl, 130 mM NaCl.
Assay [6] concerns the target Syk tandem SH2 (tSH2) domain. The assay can be described thus: intrinsic Trp fluorescence; 0 mM KCl, 150 mM NaCl.
Assay [7] deals with Syk tandem SH2 (tSH2) domain. The assay can be described thus: intrinsic Trp fluorescence; 50 mM KCl, 100 mM NaCl.
For assay [8], the target named is Syk tandem SH2 (tSH2) domain. The assay is described as follows: intrinsic Trp fluorescence; 5 mM KCl, 145 mM NaCl.

Non-standard residues stand in square brackets, D forms with d. No end group written: not given here. pY = N[C@@H](Cc1ccc(OP(=O)(O)O)cc1)C(=O)O

Consider NQL[pY]NELNLGRREE[pY]DVLD (also: AlexaFluor 488 label, position not given here) [ITAM-ζ1-Y2P peptide labeled with AlexaFluor488], for which the dissociation constant Kd in assay [1] was found to be 84.9 nM; in assay [2], 85.5 nM; in assay [3], 85.5 nM; in assay [4] it was 81.1 nM.
In the case of NQL[pY]NELNLGRREE[pY]DVLD [ITAM-ζ1-Y2P peptide (doubly phosphorylated first ITAM of the CD3-ζ chain)], the Kd in assay [5] came out at 84.3 nM; in assay [6], 97.5 nM; in assay [7], 82.7 nM; in assay [8], 86 nM.
